Data reported in article PMC9007743.

Target: rhodopsin (bovine (endogenous in bovine retina)) (UniProt P02699)
Sequence (P02699 whole entry): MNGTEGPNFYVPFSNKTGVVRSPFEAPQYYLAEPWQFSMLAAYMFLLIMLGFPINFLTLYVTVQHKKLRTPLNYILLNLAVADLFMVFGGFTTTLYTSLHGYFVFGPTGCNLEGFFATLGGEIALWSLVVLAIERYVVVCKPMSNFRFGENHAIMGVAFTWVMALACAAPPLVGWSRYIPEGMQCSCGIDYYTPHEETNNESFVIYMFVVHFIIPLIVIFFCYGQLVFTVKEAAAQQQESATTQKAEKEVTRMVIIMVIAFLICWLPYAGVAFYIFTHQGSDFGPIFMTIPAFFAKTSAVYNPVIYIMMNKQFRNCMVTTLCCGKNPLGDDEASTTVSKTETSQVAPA

Chain of transducin, heterotrimeric G protein (Gt) (P04695 whole entry): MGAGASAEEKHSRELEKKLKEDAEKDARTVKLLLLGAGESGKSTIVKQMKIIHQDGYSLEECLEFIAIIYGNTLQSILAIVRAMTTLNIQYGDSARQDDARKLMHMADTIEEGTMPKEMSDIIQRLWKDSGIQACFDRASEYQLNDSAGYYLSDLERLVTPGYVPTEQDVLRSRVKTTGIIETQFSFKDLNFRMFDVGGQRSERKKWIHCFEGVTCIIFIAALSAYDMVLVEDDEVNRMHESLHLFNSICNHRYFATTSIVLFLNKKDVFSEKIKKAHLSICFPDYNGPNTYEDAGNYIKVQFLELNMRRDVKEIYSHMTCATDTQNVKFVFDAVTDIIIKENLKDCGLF
Chain of transducin, heterotrimeric G protein (Gt) (P62871 whole entry): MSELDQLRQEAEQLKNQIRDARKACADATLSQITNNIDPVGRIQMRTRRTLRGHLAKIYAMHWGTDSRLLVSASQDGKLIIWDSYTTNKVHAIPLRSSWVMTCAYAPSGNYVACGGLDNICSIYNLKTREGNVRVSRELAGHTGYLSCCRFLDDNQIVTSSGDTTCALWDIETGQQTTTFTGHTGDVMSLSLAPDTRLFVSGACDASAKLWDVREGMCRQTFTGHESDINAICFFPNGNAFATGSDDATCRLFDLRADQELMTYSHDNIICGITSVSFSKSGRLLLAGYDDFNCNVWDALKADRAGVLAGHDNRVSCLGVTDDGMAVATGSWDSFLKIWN
Chain of transducin, heterotrimeric G protein (Gt) (P02698 whole entry): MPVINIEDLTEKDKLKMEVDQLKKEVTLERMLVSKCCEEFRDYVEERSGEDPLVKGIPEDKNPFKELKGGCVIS

“transducin, heterotrimeric G protein (Gt) (from UniProt P04695 1-350; P62871 1-340; P02698 1-74) (complex)” gave a ratio Gt•GDP:Gt by native MS with 90 μM compound 1, ROS membrane present, from dark (1.2) to 15 s of illumination (0.6) (ratio Gt•GDP:Gt) of 1.2, a ratio Gt•GDP:Gt by native MS with 90 μM compound 6, ROS membrane present, from dark (2.0) to 15 s of illumination (0.8) (ratio Gt•GDP:Gt) of 2 and a ratio Gt•GDP:Gt by native MS, control without compound, ROS membrane present, from dark (4.1) to 15 s of illumination (1.2) (ratio Gt•GDP:Gt) of 4.1.
